First the molecules themselves.
B1: human ACVR2B.Fc fusion protein (Fc fusion)
chain: SGRGEAETRECIYYNANWELERTNQSGLERCEGEQDKRLHCYASWRNSSGTIELVKKGCWLDDFNCYDRQECVATEENPQVYFCCCEGNFCNERFTHLPEAGGPEVTYEPPPTAPTLLT

Assay [1] addresses ACVR1 (UniProt Q04771).
Assay [2] has as its target T1, Activin A.∆D406 (human, UniProt P08476 311-426, ∆D406).
T1 sequence: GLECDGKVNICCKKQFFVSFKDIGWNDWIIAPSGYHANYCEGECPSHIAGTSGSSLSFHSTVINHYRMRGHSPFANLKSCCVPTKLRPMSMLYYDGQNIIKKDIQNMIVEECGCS
The assay is described as follows: SPR. For orientation: In SPR one partner is held on a chip, and binding of the other changes the refractive index at the surface.

The target of assay [3] is T1, Activin A.∆D406. The assay is described as follows: SPR. This is another data set of the same source.
Assay [4] has as its target B1. Kind of assay: SPR.
The target of assay [5] is B1. The assay is described as follows: SPR.
In assay [6] the target is T2, ACVR1 (UniProt Q04771 21-123).
T2 sequence (looked up): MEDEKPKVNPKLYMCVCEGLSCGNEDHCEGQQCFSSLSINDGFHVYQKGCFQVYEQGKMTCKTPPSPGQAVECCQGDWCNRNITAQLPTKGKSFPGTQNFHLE
Kind of assay: cell-based or functional assay.

In assay [7] the target is T3, human ACVR2B.Fc fusion protein (human, UniProt Q13705 19-137).
T3 construct: Probably the extracellular domain (surmise); Captured on Protein A in one SPR experiment, coupled to the chip in another
T3 sequence (looked up): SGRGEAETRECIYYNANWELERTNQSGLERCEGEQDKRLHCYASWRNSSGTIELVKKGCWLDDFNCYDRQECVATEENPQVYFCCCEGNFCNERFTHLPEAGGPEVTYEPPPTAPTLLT
The assay is described as follows: SPR; Biacore 3000, CM5 chip; human ACVR2B.Fc captured on covalently immobilised Protein A; ligand 100nM-0.14 nM flowed at 100 uL/minute; 25°C; HBS-EP (10 mM Hepes, 150 mM NaCl, 3.4 mM EDTA, 0.05% polysorbate 20, pH 7.4); 1:1 binding model with mass transport limitation. Particulars: both partners purified.

Assay [8] deals with T4, monomeric extracellular domain of ACVR2B (UniProt Q13705 19-137).
T4 construct: ACVR2B, extracellular domain, monomeric
T4 sequence (looked up): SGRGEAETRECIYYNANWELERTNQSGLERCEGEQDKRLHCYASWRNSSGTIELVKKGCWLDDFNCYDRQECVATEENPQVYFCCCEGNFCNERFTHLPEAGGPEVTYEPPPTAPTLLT
The assay is described as follows: SPR; complexes of ligand•type II receptor extracellular domain formed at 1:2.5 ratio and injected over captured ACVR1B-Fc and ACVR1-Fc. Particulars: both partners purified.

For “Activin A (from UniProt P08476 311-426) (ligand)”, the IC50 of inhibition of BMP7 (12 nM)-induced Smad1/5/8 luciferase reporter signal in HEK293 cells in assay [1] turned out to be 1400 pM.

For B1, the koff (in general, a measure of how fast the partners let go of each other) in assay [2] amounted to 0.000254 s⁻¹. For the same molecule, the Kd (usually the concentration at which binding is half-saturated) in assay [3] amounted to 4.62 pM.

B2: Activin A.Nod.F2TL (ligand)
chain: GLECDGKVNICCKKQFFVSFKDIGWNDWIIAPSGYHANYCEGECPSHIAGTSGSSLSFHSTVINHYRMRGHSPFANLKSCCVPTKLRPMSMLYYDNGRIIKKDIQNMIVEECGCS
In turn, B2 gave a koff in assay [4] of 0.00027 s⁻¹. Further, the Kd in assay [5] stood at 5.11 pM.

B3: Activin A.∆D406 (ligand, human, UniProt P08476 311-426, looked up)
chain: GLECDGKVNICCKKQFFVSFKDIGWNDWIIAPSGYHANYCEGECPSHIAGTSGSSLSFHSTVINHYRMRGHSPFANLKSCCVPTKLRPMSMLYYDGQNIIKKDIQNMIVEECGCS
notes: also called ActA.ΔD406; source: CHO-K1 cells expressing human Furin, stably expressed, purified (heparin, size exclusion, C4 reverse phase)
Turning to B3, in assay [6], the “IC50 of inhibition of BMP7 (12 nM)-induced Smad1/5/8 luciferase reporter signal in HEK293 cells” value worked out at 20000 pM. In assay [7], the binding result was “binds”.

B4: Activin A (ligand, human, UniProt P08476 311-426, looked up)
chain: GLECDGKVNICCKKQFFVSFKDIGWNDWIIAPSGYHANYCEGECPSHIAGTSGSSLSFHSTVINHYRMRGHSPFANLKSCCVPTKLRPMSMLYYDDGQNIIKKDIQNMIVEECGCS
notes: Activin A (inhibin beta A chain), human, mature region cloned downstream of the mouse Inhba pro-peptide; the mature dimer was isolated; rhActivin A from R and D Systems is named only for the in vivo implants; also called wild-type Activin A; Activin A WT; source: CHO-K1 cells expressing human Furin, stably expressed, purified (heparin, size exclusion, C4 reverse phase)
In turn, B4 returned a koff in assay [4] of 8.46e-05 s⁻¹. For the same molecule, in assay [5], the Kd amounted to 4.49 pM. For the same molecule, the binding result in assay [8] and in assay [7] was “binds” each time.

(Values after publication PMC7326492 (eLife, 2020).)
